Paper PMC12380274

Experiments:
[1] = target: chicken p32/C1QBP/gC1qR clone M9 (residues 76-278) fused to the GAL4 activation domain (UniProt A0A8V1AMS0); assay: yeast two-hybrid, liquid β-galactosidase (ONPG) assay; details: triplicates over three independent experiments; for response: parent: 16.2
[2] = target: pUL47 (RB-1B) domain 71-185 fused to the GAL4 DNA-binding domain (Marek's Disease Virus (Gallid alphaherpesvirus 2), strain RB-1B); assay: two-hybrid; SR mutants and Δ71-185 of pUL47 in pGBKT7 against p32(M9); β-galactosidase coloration and liquid β-galactosidase quantification relative to full-length pUL47 (1-808), triplicates over three experiments (Fig 4B, 4C)
[3] = target: full-length pUL47 (RB-1B) with SR motif 3 mutated to AA, fused to the GAL4 DNA-binding domain (Marek's Disease Virus (Gallid alphaherpesvirus 2), strain RB-1B); assay: as above
[4] = target: full-length pUL47 (RB-1B) with SR motif 4 mutated to AA, fused to the GAL4 DNA-binding domain (Marek's Disease Virus (Gallid alphaherpesvirus 2), strain RB-1B); assay: as above

## pUL47 (RB-1B) domain 71-185 fused to the GAL4 DNA-binding domain SR6 (SR motif 6, Ser-Arg to Ala-Ala)
[1]
  response: 8.2 % vs 1-808

## chicken p32/C1QBP/gC1qR clone M9 (residues 76-278) fused to the GAL4 activation domain (from UniProt A0A8V1AMS0 76-278) (domain or fragment)
[2]
  β-galactosidase signal, percent of full-length pUL47: 16%
[3]
  reduction of β-galactosidase signal against full-length pUL47: 30%
[4]
  reduction of β-galactosidase signal against full-length pUL47: 30%

## pUL47 (RB-1B) domain 71-185 fused to the GAL4 DNA-binding domain SR5 (Ser-Arg to Ala-Ala); SR6 (Ser-Arg to Ala-Ala)
[1]
  response: 10.1 % vs 1-808

## pUL47 (RB-1B) domain 71-185 fused to the GAL4 DNA-binding domain SR3 (Ser-Arg to Ala-Ala); SR4 (Ser-Arg to Ala-Ala)
[1]
  response: 3.7 % vs 1-808

## pUL47 of Marek's Disease Virus (RB-1B), full length, fused to the GAL4 DNA-binding domain (pGBKT7-UL47) SR3 (Ser-Arg to Ala-Ala); SR4 (Ser-Arg to Ala-Ala)
[1]; parent: 100
  percent of parent: 71.2 % vs 1-808

## pUL47 (RB-1B) domain 71-185 fused to the GAL4 DNA-binding domain SR1 (SR motif 1, Ser-Arg to Ala-Ala)
[1]
  response: 25.4 % vs 1-808

## pUL47 (RB-1B) domain 71-185 fused to the GAL4 DNA-binding domain SR5 (SR motif 5, Ser-Arg to Ala-Ala)
[1]
  response: 20.4 % vs 1-808

## pUL47 (RB-1B) domain 71-185 fused to the GAL4 DNA-binding domain SR1 (Ser-Arg to Ala-Ala); SR2 (Ser-Arg to Ala-Ala)
[1]
  response: 24 % vs 1-808

## pUL47 (RB-1B) domain 71-185 fused to the GAL4 DNA-binding domain SR2 (SR motif 2, Ser-Arg to Ala-Ala)
[1]
  response: 13 % vs 1-808
